Reference: the RNAGym collection of RNA variant scans (doi:10.7554/elife.80360)

B1: HDV Ribozyme (parent)
chain: GGCCGGCAUGGUCCCAGCCUCCUCGCUGGCGCCGGCUGGGCAACAUUCCGAGGGGACCGUCCCCUCGGUAAUGGCGAAUGGGACCCA

Variants of: B1
Experiment: self-cleavage, relative activity (ratio to wild type); higher = more cleavage; co-transcriptional

In order of rising self-cleavage:
1. GGCCGGCAUGGUCCCAGCCUCCUCGCUGGCGCCGGCUGGGCAACAUUCCGAGGGGACCGUCCCCCCGGUAAUGGCGAAUUGGACCCA [U65C G80U]  0.106
2. GGCCGGCAUGGUCCCAGCCUCCUCGCUGGCGCCGGCUGGGCAACAUUCCGAGGGGACCGUCCCCUAGGUAAUGGGGAAUGGGACCCA [C66A C75G]  0.181
3. GGCCGGCAUGGUCCCAGCCUCCUCGCUGGCGCCGGCUGGGCAACAUUCCGAGGGGACCGUCCCCUAGGUAAUGGCGAUUGGGACCCA [C66A A78U]  0.198
4. GGCCGGCAUGGUCCCAGCCUCCUCGCUGGCGCCGGCUGGGCAACAUUCCGAGGGGACCGUCCCCGCGGUAAUGGUGAAUGGGACCCA [U65G C75U]  0.212
5. GGCCGGCAUGGUCCCAGCCUCCUCGCUGGCGCCGGCUGGGCAACAUUCCGAGGGGACCGUCCCCUAGGUAAUGGCGAAUGGGUCCCA [C66A A83U]  0.225
6. GGCCGGCAUGGUCCCAGCCUCCUCGCUGGCGCCGGCUGGGCAACAUUCCGAGGGGACCGUCCCCGCGGUAAUGGCGAAUGUGACCCA [U65G G81U]  0.248
7. GGCCGGCAUGGUCCCAGCCUCCUCGCUGGCGCCGGCUGGGCAACAUUCCGAGGGGACCGUCCCCGCGGUAAUGGCGAAUAGGACCCA [U65G G80A]  0.288
8. GGCCGGCAUGGUCCCAGCCUCCUCGCUGGCGCCGGCUGGGCAACAUUCCGAGGGGACCGUCCCCUAGGUAAUGGUGAAUGGGACCCA [C66A C75U]  0.292
9. GGCCGGCAUGGUCCCAGCCUCCUCGCUGGCGCCGGCUGGGCAACAUUCCGAGGGGACCGUCCCCGCGGUAAUGGCGAAAGGGACCCA [U65G U79A]  0.306
10. GGCCGGCAUGGUCCCAGCCUCCUCGCUGGCGCCGGCUGGGCAACAUUCCGAGGGGACCGUCCCCGCGGUAAUGUCGAAUGGGACCCA [U65G G74U]  0.424
11. GGCCGGCAUGGUCCCAGCCUCCUCGCUGGCGCCGGCUGGGCAACAUUCCGAGGGGACCGUCCCCGCGGUAAUGGCGAAUGCGACCCA [U65G G81C]  0.439
12. GGCCGGCAUGGUCCCAGCCUCCUCGCUGGCGCCGGCUGGGCAACAUUCCGAGGGGACCGUCCCCCCGGUAAUGUCGAAUGGGACCCA [U65C G74U]  0.523
13. GGCCGGCAUGGUCCCAGCCUCCUCGCUGGCGCCGGCUGGGCAACAUUCCGAGGGGACCGUCCCCUAGGUAAUGGCGAAUGGGCCCCA [C66A A83C]  0.527
14. GGCCGGCAUGGUCCCAGCCUCCUCGCUGGCGCCGGCUGGGCAACAUUCCGAGGGGACCGUCCCCUAGGUAAUGGCGAGUGGGACCCA [C66A A78G]  0.538
15. GGCCGGCAUGGUCCCAGCCUCCUCGCUGGCGCCGGCUGGGCAACAUUCCGAGGGGACCGUCCCCCCUGUAAUGGCGAAUGGGACCCA [U65C G67U]  0.627
16. GGCCGGCAUGGUCCCAGCCUCCUCGCUGGCGCCGGCUGGGCAACAUUCCGAGGGGACCGUCCCCUAGGUAAUGGCGAAUGGGGCCCA [C66A A83G]  0.641
17. GGCCGGCAUGGUCCCAGCCUCCUCGCUGGCGCCGGCUGGGCAACAUUCCGAGGGGACCGUCCCCGCGGUAAUGGCGAAUGGGGCCCA [U65G A83G]  0.698
18. GGCCGGCAUGGUCCCAGCCUCCUCGCUGGCGCCGGCUGGGCAACAUUCCGAGGGGACCGUCCCCGUGGUAAUGGCGAAUGGGACCCA [U65G C66U]  0.702
19. GGCCGGCAUGGUCCCAGCCUCCUCGCUGGCGCCGGCUGGGCAACAUUCCGAGGGGACCGUCCCCGCGGUAAUGGCGAAUGGGCCCCA [U65G A83C]  0.703
20. GGCCGGCAUGGUCCCAGCCUCCUCGCUGGCGCCGGCUGGGCAACAUUCCGAGGGGACCGUCCCCUAGGUGAUGGCGAAUGGGACCCA [C66A A70G]  0.745
21. GGCCGGCAUGGUCCCAGCCUCCUCGCUGGCGCCGGCUGGGCAACAUUCCGAGGGGACCGUCCCCGCGGUAAUGGCGAAUGGGACCGA [U65G C86G]  0.752
22. GGCCGGCAUGGUCCCAGCCUCCUCGCUGGCGCCGGCUGGGCAACAUUCCGAGGGGACCGUCCCCUAGGUAGUGGCGAAUGGGACCCA [C66A A71G]  0.782
23. GGCCGGCAUGGUCCCAGCCUCCUCGCUGGCGCCGGCUGGGCAACAUUCCGAGGGGACCGUCCCCGCAGUAAUGGCGAAUGGGACCCA [U65G G67A]  0.812
24. GGCCGGCAUGGUCCCAGCCUCCUCGCUGGCGCCGGCUGGGCAACAUUCCGAGGGGACCGUCCCCUAGGUCAUGGCGAAUGGGACCCA [C66A A70C]  0.831
25. GGCCGGCAUGGUCCCAGCCUCCUCGCUGGCGCCGGCUGGGCAACAUUCCGAGGGGACCGUCCCCUAGGUACUGGCGAAUGGGACCCA [C66A A71C]  0.866
26. GGCCGGCAUGGUCCCAGCCUCCUCGCUGGCGCCGGCUGGGCAACAUUCCGAGGGGACCGUCCCCGCGGUAAUGGCGAAUGGGACCAA [U65G C86A]  0.988
27. GGCCGGCAUGGUCCCAGCCUCCUCGCUGGCGCCGGCUGGGCAACAUUCCGAGGGGACCGUCCCCCCGGAAAUGGCGAAUGGGACCCA [U65C U69A]  0.989
28. GGCCGGCAUGGUCCCAGCCUCCUCGCUGGCGCCGGCUGGGCAACAUUCCGAGGGGACCGUCCCCCCGGGAAUGGCGAAUGGGACCCA [U65C U69G]  1.03
29. GGCCGGCAUGGUCCCAGCCUCCUCGCUGGCGCCGGCUGGGCAACAUUCCGAGGGGACCGUCCCCUAGGUUAUGGCGAAUGGGACCCA [C66A A70U]  1.08
30. GGCCGGCAUGGUCCCAGCCUCCUCGCUGGCGCCGGCUGGGCAACAUUCCGAGGGGACCGUCCCCGCGGUAAUGGCGAAUGGGACACA [U65G C85A]  1.11
31. GGCCGGCAUGGUCCCAGCCUCCUCGCUGGCGCCGGCUGGGCAACAUUCCGAGGGGACCGUCCCCGCGGUAAUGGCCAAUGGGACCCA [U65G G76C]  1.15
32. GGCCGGCAUGGUCCCAGCCUCCUCGCUGGCGCCGGCUGGGCAACAUUCCGAGGGGACCGUCCCCGCGGUAAUGGCGAAGGGGACCCA [U65G U79G]  1.2
